{"source": "paper PMC11986026", "test_in_all_cases": "cryo-EM structure; purified Wzc at ~2 mg/ml in LMNG, incubated with 1 mM ADP and 10 mM MgCl2 at 4 °C for 1 h; maps refined without symmetry (C1) or with C8 symmetry; octamer of one protein", "key": {"[1]": {"biological_target": "Wzc^K540M3YE (K540M, Y718E, Y717E and Y715E) from E. coli serotype K30 (E. coli K30) (UniProt P76387)"}, "[2]": {"biological_target": "Wzc^K540M2YE (K540M, Y718E, Y717E) from E. coli serotype K30 (E. coli K30) (UniProt P76387)"}, "[3]": {"biological_target": "Wzc^K540M3YE_N711Y (K540M, Y718E, Y717E, Y715E and N711Y) from E. coli serotype K30 (E. coli K30) (UniProt P76387)"}}, "data": [{"substance": "Wzc^K540M3YE (K540M, Y718E, Y717E and Y715E) from E. coli serotype K30 (from UniProt P76387 1-720) (enzyme)", "values": [{"measurement": "stoichiometry N", "setting": "[1]", "result": 8}]}, {"substance": "Wzc^K540M2YE (K540M, Y718E, Y717E) from E. coli serotype K30 (from UniProt P76387 1-720) (enzyme)", "values": [{"measurement": "stoichiometry N", "setting": "[2]", "result": 8}]}, {"substance": "Wzc^K540M3YE_N711Y (K540M, Y718E, Y717E, Y715E and N711Y) from E. coli serotype K30 (from UniProt P76387 1-720) (enzyme)", "values": [{"measurement": "stoichiometry N", "setting": "[3]", "result": 8}]}]}
